± gives the standard deviation of the averaged measurements.
B1: library; a variant is named by its letters at N, in order (parent)
chain: GCUGUCACCGGUGUAUUACCCUAGUGGUCGACCGGUCUGAUGAGUCUNNNNNNAGACGAAACAGC

Tests used:
[1] = variants of: B1; assay: FACS-Seq fitted mean relative fluorescence mCherry/BFP without ligand (log10 relative fluorescence); ligand: hypoxanthine (xanthine aptamer); higher = higher reporter protein expression; settings: HEK293T, ligand present: no
Method in brief: (§1)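 Fluorescence is reported as a normalized fitted mean of sorted-bin read counts. Lentivirally transduced HEK293T libraries (mCherry ribozyme-switch reporter, EF1α-BFP marker) were enriched, treated with or without ligand for 48 h, and sorted into 6 mCherry/BFP bins for MiSeq sequencing of PCR-amplified genomic DNA. The normal fit was on log10(mCherry/BFP), scaled to five spiked-in control ribozymes.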

[2] = variants of: B1; assay: normalized RNA/DNA level with ligand (relative to sTRSVctl = 100) (log10 (% of sTRSVctl)); ligand: hypoxanthine (xanthine aptamer); higher = less ribozyme self-cleavage, higher mRNA level; settings: ligand concentration (+) RNA-Seq: 5 mM, HEK293T, reporter: mCherry (pCS4076), ligand present: yes
Procedure: (§2)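 Hammerhead (sTRSV) ribozyme switch libraries with a ligand aptamer grafted on stem I and a randomized N4-6 loop II, cloned into the 3' UTR of mCherry and transiently transfected into HEK293T cells; RNA-Seq 72 h post transfection with ligand added 1 h before transfection; RNA read count / plasmid DNA read count normalized to the non-cleaving sTRSVctl (x100), log10; sequences with >100 DNA reads. FACS-Seq: lentiviral library sorted into 6 bins after 48 h ligand, log-normal fit mean of mCherry/BFP scaled to controls. Printed sequences are partial switch sequences.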

[3] = variants of: B1; assay: normalized RNA/DNA level without ligand (relative to sTRSVctl = 100) (log10 (% of sTRSVctl)); ligand: hypoxanthine (xanthine aptamer); higher = less ribozyme self-cleavage, higher mRNA level; settings: HEK293T, reporter: mCherry (pCS4076), ligand present: no
Procedure: as §2

[4] = variants of: B1; assay: FACS-Seq fitted mean relative fluorescence mCherry/BFP with ligand (log10 relative fluorescence); ligand: hypoxanthine (xanthine aptamer); ligand concentration (+) FACS-Seq: 5 mM; higher = higher reporter protein expression; settings: HEK293T, ligand present: yes
Method in brief: as §1

Row | Variant | FACS-Seq fitted mean (log10) [1] | normalized RNA/DNA level with ligand (log10) [2] | normalized RNA/DNA level without ligand (log10) [3] | FACS-Seq fitted mean (log10) [4]
1 | UAGGAU | 0.683 ± 0.097 | 1.94 ± 0.027 | 1.66 ± 0.021 | 0.628 ± 0.013
2 | GAGGCA | 0.306 ± 0.0093 | 1.937 ± 0.018 | 1.9192 ± 0.0019 | 0.427 ± 0.021
3 | UAGGCC | 0.378 ± 0.066 | 2.002 ± 0.0047 | 1.954 ± 0.0025 | 0.564 ± 0.03
4 | AAGGCG | 0.0654 ± 0.029 | 1.77 ± 0.08 | 1.24 ± 0.032 | 0.526 ± 0.018
5 | GAGGCG | 0.189 ± 0.012 | 1.95 ± 0.012 | 1.68 ± 0.088 | 0.597 ± 0.047
6 | GAGGCU | 0.751 ± 0.037 | 2 ± 0.021 | 1.98 ± 0.036 | 0.721 ± 0.025
7 | AAGGGA | 0.273 ± 0.057 | 1.83 ± 0.035 | 1.44 ± 0.017 | 0.545 ± 0.02
8 | AAGGGC | 0.365 ± 0.031 | 1.9146 ± 0.00071 | 1.75 ± 0.023 | 0.576 ± 0.022
9 | GAGGGC | -0.0173 ± 0.076 | 1.87 ± 0.056 | 1.5 ± 0.021 | 0.367 ± 0.041
10 | CAGGGG | 0.166 ± 0.0056 | 1.75 ± 0.036 | 1.23 ± 0.06 | 0.48135 ± 0.00032
11 | AAGGGG | 0.115 ± 0.014 | 1.78 ± 0.031 | 1.203 ± 0.002 | 0.386 ± 0.1
12 | UAGGGG | 0.118 ± 0.086 | 1.87 ± 0.037 | 1.5 ± 0.022 | 0.393 ± 0.018
13 | AAGGGU | 0.236 ± 0.0092 | 1.835 ± 0.0086 | 1.54 ± 0.072 | 0.4 ± 0.093
14 | UAGGGU | 0.526 ± 0.034 | 1.84 ± 0.067 | 1.5 ± 0.027 | 0.632 ± 0.075
15 | CAGGUA | -0.0109 ± 0.015 | 1.757 ± 0.016 | 1.57 ± 0.014 | 0.148 ± 0.04
16 | AAGGUA | 0.0361 ± 0.0026 | 1.767 ± 0.012 | 1.62 ± 0.021 | 0.162 ± 0.035
17 | UAGGUC | 0.588 ± 0.034 | 1.978 ± 0.0051 | 1.95 ± 0.054 | 0.577 ± 0.036
18 | AAGGUG | -0.0635 ± 0.037 | 1.666 ± 0.0026 | 1.22 ± 0.024 | 0.37 ± 0.077
19 | GAGGUG | 0.14 ± 0.057 | 1.78 ± 0.031 | 1.33 ± 0.025 | 0.551 ± 0.026
20 | UAGGUG | 0.399 ± 0.065 | 1.89 ± 0.079 | 1.61 ± 0.035 | 0.591 ± 0.012
21 | AAGGUU | 0.941 ± 0.099 | 1.93 ± 0.021 | 1.7849 ± 0.0012 | 0.771 ± 0.19
22 | AAGUAA | 0.279 ± 0.049 | 1.86 ± 0.036 | 1.601 ± 0.012 | 0.457 ± 0.048
23 | GAGUAA | 0.154 ± 0.061 | 1.878 ± 0.015 | 1.54 ± 0.023 | 0.427 ± 0.056
24 | AAGUAC | 0.425 ± 0.075 | 1.89 ± 0.065 | 1.647 ± 0.015 | 0.673 ± 0.064

Row | Variant | FACS-Seq fitted mean (log10) [1] | normalized RNA/DNA level with ligand (log10) [2] | normalized RNA/DNA level without ligand (log10) [3] | FACS-Seq fitted mean (log10) [4]
25 | GAGUAC | 0.301 ± 0.14 | 1.907 ± 0.019 | 1.71 ± 0.041 | 0.51 ± 0.013
26 | CAGUAG | 0.475 ± 0.064 | 1.91 ± 0.11 | 1.57 ± 0.026 | 0.586 ± 0.0075
27 | AAGUAG | -0.0595 ± 0.042 | 1.593 ± 0.013 | 1.1 ± 0.048 | 0.568 ± 0.023
28 | GAGUAG | -0.0875 ± 0.065 | 1.57 ± 0.033 | 1.13 ± 0.05 | 0.421 ± 0.051
29 | UAGUAG | 0.218 ± 0.026 | 1.86 ± 0.04 | 1.49 ± 0.058 | 0.441 ± 0.097
30 | CAGUAU | 0.355 ± 0.032 | 1.92 ± 0.031 | 1.61 ± 0.062 | 0.629 ± 0.094
31 | AAGUAU | 0.434 ± 0.12 | 1.895 ± 0.011 | 1.68 ± 0.019 | 0.301 ± 0.0055
32 | GAGUAU | 0.3631 ± 0.0016 | 1.913 ± 0.0071 | 1.69 ± 0.021 | 0.472 ± 0.017
33 | AAGUCA | 0.838 ± 0.069 | 1.9 ± 0.062 | 1.63 ± 0.062 | 0.608 ± 0.1
34 | GAGUCA | 0.644 ± 0.03 | 1.906 ± 0.014 | 1.74 ± 0.056 | 0.707 ± 0.032
35 | UAGUCA | 0.551 ± 0.061 | 1.944 ± 0.0025 | 1.853 ± 0.006 | 0.647 ± 0.03
36 | UAGUCC | 0.327 ± 0.0056 | 1.97 ± 0.067 | 1.92 ± 0.023 | 0.646 ± 0.091
37 | AAGUCG | -0.00018 ± 0.0075 | 1.79 ± 0.11 | 1.187 ± 0.0065 | 0.661 ± 0.016
38 | AAGUCU | -0.27 ± 0.07 | 1.91 ± 0.046 | 1.84 ± 0.053 | -0.266 ± 0.014
39 | CAGUGA | 0.406 ± 0.012 | 1.89 ± 0.076 | 1.71 ± 0.057 | 0.487 ± 0.032
40 | AAGUGA | -0.0239 ± 0.018 | 1.81 ± 0.02 | 1.47 ± 0.019 | 0.0676 ± 0.035
41 | GAGUGA | 0.22 ± 0.019 | 1.87 ± 0.066 | 1.453 ± 0.012 | 0.468 ± 0.065
42 | UAGUGA | 0.153 ± 0.015 | 1.88 ± 0.033 | 1.57 ± 0.041 | 0.438 ± 0.039
43 | GAGUGC | 0.0552 ± 0.013 | 1.876 ± 0.005 | 1.501 ± 0.013 | 0.361 ± 0.045
44 | CAGUGG | 0.315 ± 0.042 | 1.9 ± 0.024 | 1.32 ± 0.043 | 0.629 ± 0.11
45 | AAGUGG | 0.227 ± 0.067 | 1.57 ± 0.1 | 1.093 ± 0.0029 | 0.765 ± 0.065
46 | GAGUGG | -0.253 ± 0.023 | 1.59 ± 0.12 | 1.13 ± 0.067 | 0.299 ± 0.042
47 | UAGUGG | 0.242 ± 0.04 | 1.861 ± 0.015 | 1.41 ± 0.019 | 0.511 ± 0.035
48 | CAGUGU | 0.44 ± 0.086 | 1.924 ± 0.002 | 1.87 ± 0.016 | 0.795 ± 0.017

Row | Variant | FACS-Seq fitted mean (log10) [1] | normalized RNA/DNA level with ligand (log10) [2] | normalized RNA/DNA level without ligand (log10) [3] | FACS-Seq fitted mean (log10) [4]
49 | AAGUGU | 0.111 ± 0.029 | 1.89 ± 0.046 | 1.571 ± 0.015 | 0.229 ± 0.011
50 | GAGUGU | 0.458 ± 0.014 | 1.86 ± 0.036 | 1.6 ± 0.062 | 0.69 ± 0.053
51 | UAGUGU | 0.0263 ± 0.029 | 1.9 ± 0.065 | 1.45 ± 0.063 | 0.449 ± 0.12
52 | AAGUUA | -0.098 ± 0.017 | 1.89 ± 0.02 | 1.613 ± 0.013 | 0.476 ± 0.07
53 | AAGUUG | -0.243 ± 0.014 | 1.626 ± 0.013 | 1.12 ± 0.013 | 0.435 ± 0.052
54 | GAGUUG | 0.0221 ± 0.018 | 1.62 ± 0.1 | 1.14 ± 0.038 | 0.503 ± 0.022
55 | AAGUUU | -0.231 ± 0.049 | 1.898 ± 0.012 | 1.87 ± 0.023 | -0.254 ± 0.013
56 | GAGUUU | 0.34 ± 0.066 | 1.92 ± 0.058 | 1.83 ± 0.026 | 0.348 ± 0.13
57 | CAUAAA | 0.609 ± 0.07 | 1.89 ± 0.038 | 1.735 ± 0.01 | 0.597 ± 0.038
58 | AAUAAA | 0.416 ± 0.064 | 1.872 ± 0.014 | 1.756 ± 0.011 | 0.252 ± 0.092
59 | GAUAAA | 0.6 ± 0.041 | 1.919 ± 0.009 | 1.764 ± 0.0024 | 0.621 ± 0.12
60 | AAUAAG | 0.306 ± 0.0098 | 1.83 ± 0.024 | 1.473 ± 0.005 | 0.638 ± 0.04
61 | GAUAAG | -0.0234 ± 0.075 | 1.81 ± 0.027 | 1.36 ± 0.025 | 0.43 ± 0.02
62 | UAUAAG | 0.0362 ± 0.033 | 1.87 ± 0.034 | 1.611 ± 0.015 | 0.291 ± 0.019
63 | CAUAAU | 0.515 ± 0.078 | 1.88 ± 0.059 | 1.793 ± 0.011 | 0.559 ± 0.061
64 | AAUAAU | 0.172 ± 0.059 | 1.89 ± 0.022 | 1.75 ± 0.021 | 0.376 ± 0.046
65 | GAUAAU | -0.0227 ± 0.0069 | 1.909 ± 0.0021 | 1.78 ± 0.026 | 0.133 ± 0.006
66 | UAUAAU | 0.434 ± 0.04 | 1.93 ± 0.021 | 1.785 ± 0.0039 | 0.588 ± 0.067
67 | AAUACA | 0.346 ± 0.053 | 1.88 ± 0.05 | 1.801 ± 0.0096 | 0.496 ± 0.0044
68 | GAUACA | 0.774 ± 0.022 | 1.93 ± 0.095 | 1.83 ± 0.0097 | 0.711 ± 0.11
69 | UAUACA | 0.641 ± 0.013 | 1.93 ± 0.053 | 1.854 ± 0.012 | 0.518 ± 0.019
70 | AAUACC | 0.491 ± 0.22 | 1.933 ± 0.019 | 1.895 ± 0.0024 | 0.448 ± 0.018
71 | CAUACG | 0.394 ± 0.013 | 1.903 ± 0.016 | 1.88 ± 0.079 | 0.469 ± 0.045
